Columns and labels:
[1] = molecular target: DEBS3 (bimodular protein of the 6-deoxyerythronolide B synthase) (Saccharopolyspora erythraea, UniProt Q03133); assay: SEC-SAXS
DEBS module 3+TE = DEBS module 3+TE (Saccharopolyspora erythraea); assay: ELISA

Chain of DEBS3 (bimodular protein of the 6-deoxyerythronolide B synthase) (Q03133 whole entry): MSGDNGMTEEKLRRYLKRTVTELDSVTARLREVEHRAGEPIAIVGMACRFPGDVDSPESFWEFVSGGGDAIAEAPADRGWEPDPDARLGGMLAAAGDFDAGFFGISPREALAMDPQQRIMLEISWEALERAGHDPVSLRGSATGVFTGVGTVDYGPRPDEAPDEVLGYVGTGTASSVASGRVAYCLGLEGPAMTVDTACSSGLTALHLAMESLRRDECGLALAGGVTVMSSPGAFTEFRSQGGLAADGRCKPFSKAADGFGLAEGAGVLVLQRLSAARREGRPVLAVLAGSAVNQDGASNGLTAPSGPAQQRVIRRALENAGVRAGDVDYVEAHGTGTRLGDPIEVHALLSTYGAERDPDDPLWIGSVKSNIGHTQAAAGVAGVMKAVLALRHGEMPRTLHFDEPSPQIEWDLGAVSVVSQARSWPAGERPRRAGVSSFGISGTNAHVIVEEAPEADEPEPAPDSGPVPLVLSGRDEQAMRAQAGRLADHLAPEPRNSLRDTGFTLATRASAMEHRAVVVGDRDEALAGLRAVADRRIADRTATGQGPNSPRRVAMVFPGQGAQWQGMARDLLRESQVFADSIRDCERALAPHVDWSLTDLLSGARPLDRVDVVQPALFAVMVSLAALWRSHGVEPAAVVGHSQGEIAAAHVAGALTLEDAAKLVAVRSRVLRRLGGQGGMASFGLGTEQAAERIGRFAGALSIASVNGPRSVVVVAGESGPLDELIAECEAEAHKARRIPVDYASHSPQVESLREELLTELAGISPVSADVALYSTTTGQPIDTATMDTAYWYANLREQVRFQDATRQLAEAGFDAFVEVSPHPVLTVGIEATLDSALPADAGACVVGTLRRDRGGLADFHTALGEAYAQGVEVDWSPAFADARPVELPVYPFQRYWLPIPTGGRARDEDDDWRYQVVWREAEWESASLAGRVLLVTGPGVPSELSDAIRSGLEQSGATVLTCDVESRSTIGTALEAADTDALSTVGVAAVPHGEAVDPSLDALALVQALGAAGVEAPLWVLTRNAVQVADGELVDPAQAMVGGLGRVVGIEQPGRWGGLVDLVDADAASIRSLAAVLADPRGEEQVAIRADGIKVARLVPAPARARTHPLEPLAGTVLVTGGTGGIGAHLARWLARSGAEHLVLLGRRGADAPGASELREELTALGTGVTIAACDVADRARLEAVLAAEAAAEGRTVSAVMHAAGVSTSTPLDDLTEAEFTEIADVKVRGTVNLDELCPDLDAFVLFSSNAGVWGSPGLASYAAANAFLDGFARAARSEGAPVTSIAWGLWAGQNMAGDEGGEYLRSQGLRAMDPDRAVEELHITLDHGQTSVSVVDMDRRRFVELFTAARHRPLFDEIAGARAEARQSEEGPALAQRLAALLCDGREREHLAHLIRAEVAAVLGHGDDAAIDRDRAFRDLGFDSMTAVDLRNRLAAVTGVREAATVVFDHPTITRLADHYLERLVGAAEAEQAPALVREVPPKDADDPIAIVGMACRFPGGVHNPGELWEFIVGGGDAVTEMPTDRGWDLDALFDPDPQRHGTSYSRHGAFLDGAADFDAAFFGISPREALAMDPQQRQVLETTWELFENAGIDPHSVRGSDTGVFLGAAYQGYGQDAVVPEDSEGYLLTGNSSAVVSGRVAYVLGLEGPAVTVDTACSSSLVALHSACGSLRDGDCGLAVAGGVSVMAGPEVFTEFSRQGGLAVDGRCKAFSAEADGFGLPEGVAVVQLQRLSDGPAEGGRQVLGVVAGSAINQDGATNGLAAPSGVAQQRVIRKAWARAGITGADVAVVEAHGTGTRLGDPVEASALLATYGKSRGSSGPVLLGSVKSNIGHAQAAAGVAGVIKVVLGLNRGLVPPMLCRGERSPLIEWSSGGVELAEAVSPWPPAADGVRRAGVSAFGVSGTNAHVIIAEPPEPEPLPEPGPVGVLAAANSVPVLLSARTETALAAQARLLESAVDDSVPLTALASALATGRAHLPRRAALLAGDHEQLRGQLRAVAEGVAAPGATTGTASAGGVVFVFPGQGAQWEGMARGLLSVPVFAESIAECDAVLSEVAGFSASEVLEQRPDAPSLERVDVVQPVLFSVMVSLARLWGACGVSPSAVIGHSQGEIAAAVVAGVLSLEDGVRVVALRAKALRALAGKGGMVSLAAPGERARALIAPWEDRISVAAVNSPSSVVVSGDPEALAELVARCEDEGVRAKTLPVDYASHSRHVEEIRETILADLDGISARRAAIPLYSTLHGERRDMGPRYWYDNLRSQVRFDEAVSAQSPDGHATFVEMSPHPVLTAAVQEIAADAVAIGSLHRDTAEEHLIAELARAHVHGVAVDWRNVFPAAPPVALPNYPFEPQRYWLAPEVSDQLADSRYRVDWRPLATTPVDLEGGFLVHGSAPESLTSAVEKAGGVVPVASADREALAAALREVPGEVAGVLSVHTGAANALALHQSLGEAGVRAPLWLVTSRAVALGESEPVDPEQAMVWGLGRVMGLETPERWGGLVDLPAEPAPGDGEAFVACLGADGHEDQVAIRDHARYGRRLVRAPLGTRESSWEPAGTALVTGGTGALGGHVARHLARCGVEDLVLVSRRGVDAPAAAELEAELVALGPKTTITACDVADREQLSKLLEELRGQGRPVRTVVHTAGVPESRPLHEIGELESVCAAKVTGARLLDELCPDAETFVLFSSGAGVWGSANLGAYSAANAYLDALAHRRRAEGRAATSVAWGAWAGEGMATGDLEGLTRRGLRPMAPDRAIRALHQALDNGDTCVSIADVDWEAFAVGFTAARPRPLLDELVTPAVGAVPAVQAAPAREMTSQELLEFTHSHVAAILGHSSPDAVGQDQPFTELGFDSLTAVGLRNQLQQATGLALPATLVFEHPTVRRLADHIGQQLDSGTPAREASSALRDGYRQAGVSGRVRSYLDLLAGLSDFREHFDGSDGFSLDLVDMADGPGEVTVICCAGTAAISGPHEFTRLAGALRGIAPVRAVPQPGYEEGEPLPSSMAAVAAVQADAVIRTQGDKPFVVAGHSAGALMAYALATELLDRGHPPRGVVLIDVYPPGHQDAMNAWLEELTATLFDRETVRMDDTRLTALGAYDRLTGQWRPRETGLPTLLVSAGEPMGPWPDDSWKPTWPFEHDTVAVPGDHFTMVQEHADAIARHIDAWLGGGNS

B1: Fab 3A6 (Fab, V domains shown)
VH: QVQLQQWGAGLLKPSETLSLTCAVYGGSFSGYYWSWIRQPPGKGLEWIGEINHSGSTNYNPSLKSRVTISVDTSKNQFSLKLSSVTAADTAVYYCARGLGYSGSYYAPNWGQGTLVTVSS
VL: not shown
[1]
  binding result: binds
DEBS module 3+TE
  Kd: 42 ± 12 nM

Source: paper PMC6424575 (Biochemistry, 2018)
